Assay results published in patent US20240182526A1 (UNIVERSITY OF SOUTHERN CALIFORNIA, published 2024).

Target: T1, SRC, endogenous in mouse splenocytes (mouse, UniProt P05480 2-535)
T1 construct: Detected as pSRC (pY416-SRC antibody) in gp130 co-immunoprecipitates; also called pSRC; c-SRC
Assay: co-immunoprecipitation, F814 mouse splenocytes with or without OSM

binding result: no binding
B1: gp130 F814 variant of the CRISPR/Cas9 F814 mouse (SEQ ID NO:27 with F812 substitution) (receptor)
chain: QLLEPCGYIYPEFPVVQRGSNFTAICVLKEACLQHYYVNASYIVWKTNHAAVPREQVTVINRTTSSVTFTDVVLPSVQLTCNILSFGQIEQNVYGVTMLSGFPPDKPTNLTCIVNEGKNMLCQWDPGRETYLETNYTLKSEWATEKFPDCQSKHGTSCMVSYMPTYYVNIEVWVEAENALGKVSSESINFDPVDKVKPTPPYNLSVTNSEELSSILKLSWVSSGLGGLLDLKSDIQYRTKDASTWIQVPLEDTMSPRTSFTVQDLKPFTEYVFRIRSIKDSGKGYWSDWSEEASGTTYEDRPSRPPSFWYKTNPSHGQEYRSVRLIWKALPLSEANGKILDYEVILTQSKSVSQTYTVTGTELTVNLTNDRYVASLAARNKVGKSAAAVLTIPSPHVTAAYSVVNLKAFPKDNLLWVEWTPPPKPVSKYILEWCVLSENAPCVEDWQQEDATVNRTHLRGRLLESKCYQITVTPVFATGPGGSESLKAYLKQAAPARGPTVRTKKVGKNEAVLAWDQIPVDDQNGFIRNYSISYRTSVGKEMVVHVDSSHTEYTLSSLSSDTLYMVRMAAYTDEGGKDGPEFTFTTPKFAQGEIEAIVVPVCLAFLLTTLLGVLFCFNKRDLIKKHIWPNVPDPSKSHIAQWSPHTPPRHNFNSKDQMYSDGNFTDVSVVEIEANNKKPCPDDLKSVDLFKKEKVSTEGHSSGIGGSSCMSSSRPSISSNEENESAQSTASTVQYSTVVHSGYRHQVPSVQVFSRSESTQPLLDSEERPEDLQLVDSVDGGDEILPRQPFFKQNCSQPEACPEISHFERSNQVLSGNEEDFVRLKQQQVSDHISQPYGSEQRRLFQEGSTADALGTGADGQMERFESVGMETTIDEEIPKSYLPQTVRQGGYMPQ
notes: Endogenous protein in lysates of F814 mouse splenocytes; also called Y814 mutant; gp130 Y814-deficient
